The values below come from patent publication US11015206B2, “Compositions and methods comprising sequences having hydroxyphenylpyruvate dioxygenase (HPPD) activity” (PIONEER HI-BRED INTERNATIONAL, INC., priority 2014, dated 2021).

Numbering of substitutions follows the chain as printed. Names and notes keep the numbering of the source.

Assay type in all cases: biochemical, Z. mays
Data set [1] relates to 4-hydroxyphenylpyruvate dioxygenase (HPPD). Put plainly: OFF rate ratio: release of inhibitor from pre-formed enzyme-inhibitor complex. The following applies: for OFF ratio (parameters with tembotrione): Table 5. In outline:
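HPPD (7.2 μM) pre-incubated 1 h at RT with inhibitor (8 μM), then diluted into 25 mM Hepes pH 7, 2 mM ascorbate, 10 μM FeSO4, 100 μM HPP, 50 nM HGD; A320 followed 12 min. Ratio = steady-state rate with inhibitor over initial rate of inhibitor-free enzyme.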

For data set [2] the test system is unchanged. Briefly: ON rate ratio: HPPD reaction rate with vs without inhibitor in the 70 to 90 second interval. Conditions: for ON rate ratio: mesotrione; for ON ratio (parameters with tembotrione): Table 5. The essentials:
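Time courses of HPPD reactions, 60 or 120 nM enzyme with 100 μM HPP substrate, run with and without 4 μM inhibitor (e.g. mesotrione, tembotrione). Value is the rate with inhibitor over rate without, taken over 70–90 s; higher ratio reflects slower kON.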

The test system is the same in data set [3]. Briefly: HPPD activity coupled assay with HGD; substrate saturation kinetic parameters (kcat, KM). The procedure: Wild type and shuffled variant genes were cloned into pVER7062, a modified version of pET24a(+)(Novagen), which places six histidine residues at the N-terminus of the expressed protein. Vectors were electroporated into E. coli host strain BL21(DE3). Cells were grown at 30 C in rich medium such as 2×YT containing the selection antibiotic, kanamycin. At a density of about 0.6 OD600, IPTG was added to 0.2 mM, the temperature was reduced to 16 C and growth continued for another 24 hrs. Cells were harvested by centrifugation and stored at −80 C. Cell pellets were lysed in BPER (Pierce) protein extraction reagent containing 0.2 mg/ml lysozyme, 1 mM dithiothreitol, protease inhibitor cocktail (Sigma, bacterial cocktail) and endonuclease. Insoluble cellular debris was removed by centrifugation. HPPD protein was purified from the soluble protein solution by affinity chromatography on the nickel form of nitrilotriacetic acid (Ni-NTA) resin (Qiagen). Protein concentrations were determined by the Bradford method, as supplied by Bio-Rad.
HPPD catalyzes the conversion of 4-hydroxyphenylpyruvate (HPP) to homogentisate (FIG. 17). […] However, the product of the ensuing reaction in tyrosine metabolism, maleylacetoacetate, absorbs strongly at 320 nm. Furthermore, the enzyme catalyzing that reaction is also a dioxygenase having similar mechanism and buffer requirements as HPPD, making homogentisate dioxygenase (HGD) an ideal partner in a coupled assay, as shown.
The HDG gene from Pseudomonas aeruginosa (Amaya (2004) Arch Biochem Biophys 421, 135-142) was cloned into pVER7062 and electroporated into E. coli strain BL21(DE3). The enzyme was produced by methods similar to those described for HPPD. The purified enzyme has a KM for homogentisate of 23 μM and a kcat of 100/sec, properties highly suited for instantly converting the homogentisate produced by HPPD to maleylacetoacetate.
HPPD activity was measured by placing an aliquot (e.g., 6 μl) of the substrate HPP at 50-fold the desired final concentration into the wells of a low UV-absorbing assay plate. Reactions were started by adding a mixture (e.g., 294 μl) containing 25 mM Hepes, pH 7, 2 mM ascorbate, 10 μM FeSO4, 1 to 100 μM HPP, 50 nM HGD and 5 to 240 nM HPPD. Absorbance at 320 nm was monitored continuously in a plate-reading spectrophotometer (Spectramax, Molecular Devices).
The catalytic performance of wild-type HPPD and variants generated by shuffling was assessed by determining the substrate saturation kinetic parameters. The Michaelis-Menten kinetics protocol of the Spectramax software was customized for HPP concentrations ranging from 3.33 μM to 100 μM. Reaction rates were measured as described above for each concentration of HPP. The software returns values of KM and Vmax using the Lineweaver-Burke transformation of the Michaelis-Menten equation.

For data set [4] the test system is unchanged. Briefly: Insensitivity parameter (ON × OFF) and trait fitness (ON × OFF × kcat/KM or × kcat). The following applies: for Insensitivity ON × OFF, Fold vs wt: vs maize wild type; for ON × OFF × kcat, Value / ON × OFF × kcat, Fold vs wt / ON × OFF, fold vs wt / ON × OFF (parameters with tembotrione): Table 5, tembotrione; for ON × OFF × kcat, Fold vs wt / ON × OFF, fold vs wt: fold vs maize wild type HPPD; for ON × OFF (parameters with tembotrione): insensitivity parameter. The essentials:
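Calculated, not measured directly: ON rate ratio × OFF rate ratio gives an insensitivity parameter serving as a KD surrogate.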

Data set [5] has the same test system. Briefly: Estimate of kcat from initial rate at saturating hydroxyphenylpyruvate without inhibitor (ON rate ratio assay). The following applies: Table 5; single substitutions in Round 7 variant 9070 (SEQ ID NO:2); estimate from initial rate at saturating hydroxyphenylpyruvate without inhibitor. In outline:
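Reactions used 60 or 120 nM HPPD and saturating 100 μM hydroxyphenylpyruvate without inhibitor. kcat was estimated from the initial rate at the known enzyme concentration.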

The mark [6] stands for this setting: Table 2, E. coli purified proteins.
[7] abbreviates: Table 6, single substitutions in SEQ ID NO:2.
[8] abbreviates: DKN (diketonitrile form of isoxaflutole).
Setting [9] is: DKN (isoxaflutole diketonitrile).

B1: G. max wt: wild-type HPPD enzyme from soybean (protein)
chain: MPMYTPSLSAPSSNHIQPSVTLPLYITTTKLNLKQQHHTTPMPIPMCNEIQAQAQAQAQPGFKLVGFKNFVRTNPKSDRFQVNRFHHIEFWCTDATNASRRFSWGLGMPIVAKSDLSTGNQIHASYLLRSGDLSFLFSAPYSPSLSAGSSAASSASIPSFDAATCLAFAAKHGFGVRAIALEVADAEAAFSASVAKGAEPASPPVLVDDRTGFAEVRLYGDVVLRYVSYKDAAPQAPHADPSRWFLPGFEAAASSSSFPELDYGIRRLDHAVGNVPELAPAVRYLKGFSGFHEFAEFTAEDVGTSESGLNSVVLANNSETVLLPLNEPVYGTKRKSQIETYLEHNEGAGVQHLALVTHDIFTTLREMRKRSFLGGFEFMPSPPPTYYANLHNRAADVLTVDQIKQCEELGILVDRDDQGTLLQIFTKPVGDRPTIFIEIIQRIGCMVEDEEGKVYQKGACGGFGKGNFSELFKSIEEYEKTLEAKRTA
modifications: Glycine max
notes: wild-type HPPD enzyme from soybean
As for B1, in data set [1] (mesotrione), the OFF rate ratio is on record as 0.007. Also, the ON rate ratio in data set [2] amounted to 0.20. In addition, in data set [3] (setting [6]), the Km (commonly the concentration of substrate that gives half-maximal velocity) is 3 µM; the catalytic constant (kcat) (usually the number of substrate molecules converted per active site and unit of time at saturation) is 1.67 s⁻¹. In data set [4] (mesotrione), the “Fitness Fold vs Zm wt” value was found to be 0.02 and the “Insensitivity ON × OFF, Fold vs wt” value is on record as 0.023. The “Insensitivity parameter, ON × OFF” value in data set [4] (mesotrione, Table 2) is listed as 0.0014.

B2: R8-1973: Round 8, variant 1973 (SEQ ID NO:8), 26 amino acid substitutions relative to native maize HPPD (protein)
chain: MGPTPTATAAGAAVAAASAAEQAAFRLVGHRNFVRFNPRSDRFQTLAFHHVELWCADAASAAGRFSFALGVPLAARSDLSTGNSAHASLLLRSGSLSLLFTAPYAHGADAATAALPSFSAAAARRFAADHGLAVRAVALRVADAEDAFRASVAAGARPAFGPVDLGRGFRLAEVELYGDVVLRYVSYPDGAAGEPFLPGFEGVASPGAADLGLNRFDHIVGNVPELAPAAAYMAGFTGFHEFAEFTTEDVGTTESGLNSMALANNSENVLLPLNEPVHGTKRRSQIQTFLDHHGGPGVQHIALASDDVLRTLREMRARSAMGGFEFLPPPLSDYYDGVRKCAGDVLTEAQINECQELGVMVDRDDEGVLLQIFTKPVGDRPTFFLEIIQRIGCREKDEKGQEYQKGGCGGFGKGNFGQLFKSIEDYEKSLEKKRAAAAATAQGS
modifications: Zea mays variant form created by artificial means.
As for B2, in data set [1] (mesotrione), the OFF rate ratio came out at 1.00. The ON rate ratio in data set [2] was found to be 0.73. Also, in data set [3] (setting [6]), the Michaelis-Menten constant (Km) worked out at 2 µM and the kcat was 1.18 s⁻¹. Also, in data set [4] (mesotrione), the “Fitness Fold vs Zm wt” value is given as 12.2 and the “Insensitivity ON × OFF, Fold vs wt” value is 11.9. Besides, the “Insensitivity parameter, ON × OFF” value in data set [4] (mesotrione, Table 2) was determined as 0.73.

B3: SEQ ID NO:78: improved shuffled variant of maize HPPD (protein)
chain: MGPTPTATAAGAAVAAASAAEQAAFRLVGHRNFVRFNPRSDRFHTLAFHHVELWCADAASAAGRFSFALGAPLAARSDLSTGNSAHASLLLRSGSLSFLFTAPYAHGADAATAALPSFSAAAARRFAADHGLAVRAVALRVADAEDAFRASVAAGARPAFGPVDLGRGFRLAEVELYGDVVLRYVSYPDGAAGEPFLPGFEGVASPGAADYGLSRFDHIVGNVPELAPAAAYFAGFTGFHEFAEFTTEDVGTAESGLNSMALANNSENVLLPLNEPVHGTKRRSQIQTFLDHHGGPGVQHIALASDDVLRTLREMQARSAMGGFEFLPPPPSDYYDGVRRCAGDVLTEAQINECQELGVMVDRDDQGVLLQIFTKPVGDRPTFFLEIIQRIGCMEKDEKGQEYQKGGCGGFGKGNFGQLFKSIEDYEKSLEAKQAAAAATAQGS
modifications: Zea mays variant form created by artificial means.
Regarding B3, in data set [1] (mesotrione, enzyme 240 nM), the “time span to reach the steady state (dissociation from inhibitor)” value was 80 s. The kcat result in data set [3] (text b374) was “about 220 min^−1”.

B4: 432K: single substitution A432K in SEQ ID NO:2 (protein)
chain: B2 chain with L211Y, N214S, K340R, E366Q, R394M, R434Q
modifications: Zea mays variant form created by artificial means.
For the molecule B4, the “OFF ratio (parameters with tembotrione)” value in data set [1] came to 0.17. The “ON ratio (parameters with tembotrione)” value in data set [2] turned out to be 0.76. Also, the Km in data set [3] (Table 6) is 2.08 µM. For the same molecule, the kcat in data set [3] (setting [7]) is 1.12 s⁻¹; in data set [5] it was 0.525 s⁻¹. The “Insensitivity parameter, ON × OFF” value in data set [4] (setting [8]) is reported as 0.26; in data set [4] (Mesotrione, Table 6), 0.52; in data set [4] (Sulcotrione), 0.59; in data set [4] (Tembotrione), 0.21; in data set [4] (Topramezon) it was 0.29. The “ON × OFF × kcat/km fold vs Round 7, variant 9070” value in data set [4] (setting [9]) is on record as 1.6; in data set [4] (Sulco (sulcotrione)), 1.5; in data set [4] (Topra (topramezone)), 1.5; in data set [4] (meso (mesotrione)), 1.6; in data set [4] (tembo (tembotrione)), 1.4. Besides, in data set [4], the “ON × OFF × kcat, Value” is listed as 4.13. For the same molecule, in data set [4], the “ON × OFF × kcat, Fold vs wt” value came out at 3.86. In addition, the “ON × OFF, fold vs wt” value in data set [4] was 25.7. Besides, the “ON × OFF (parameters with tembotrione)” value in data set [4] is 0.13.

B5: R6-9075: shuffled maize HPPD variant 9075, SEQ ID NO:79; 9070 with R316 changed to Q (protein)
chain: B3 chain with H44Q, A71V, F98L, F233M, A253T, P331L
modifications: Zea mays variant form created by artificial means.
notes: 9070 with R316 changed to Q
For the molecule B5, in data set [1] (mesotrione), the OFF rate ratio came to 0.68. In data set [2], the ON rate ratio amounted to 0.68. In data set [3] (setting [6]), the Michaelis constant (Km) amounted to 4 µM and the turnover number (kcat) worked out at 1.9 s⁻¹. Moreover, in data set [4] (mesotrione), the “Fitness Fold vs Zm wt” value was 6.4 and the “Insensitivity ON × OFF, Fold vs wt” value is recorded as 7.6. The “Insensitivity parameter, ON × OFF” value in data set [4] (mesotrione, Table 2) is listed as 0.46.

B6: 206Q: single substitution P206Q in SEQ ID NO:2 (protein)
chain: B3 chain with H44Q, A71V, F98L, P206Q, F233M, A253T, Q316R, P331L
modifications: Zea mays variant form created by artificial means.
As for B6, in data set [1], the “OFF ratio (parameters with tembotrione)” value amounted to 0.21. Besides, the “ON ratio (parameters with tembotrione)” value in data set [2] amounted to 0.74. Moreover, in data set [3] (Table 6), the Michaelis-Menten constant (Km) amounted to 2.63 µM. Moreover, the results for the kcat in data set [3] (setting [7]) and in data set [5] were 1.11 s⁻¹ and 0.59 s⁻¹, respectively. The “Insensitivity parameter, ON × OFF” value in data set [4] (setting [8]) came to 0.26; in data set [4] (Mesotrione, Table 6), 0.46; in data set [4] (Sulcotrione) it was 0.53; in data set [4] (Tembotrione), 0.19; in data set [4] (Topramezon), 0.27. Also, the “ON × OFF × kcat/km fold vs Round 7, variant 9070” value in data set [4] (setting [9]) stood at 1.2; in data set [4] (Sulco (sulcotrione)) it was 1.0; in data set [4] (Topra (topramezone)), 1.1; in data set [4] (meso (mesotrione)), 1.1; in data set [4] (tembo (tembotrione)), 1.4. Moreover, in data set [4], the “ON × OFF × kcat, Value” worked out at 5.57. Besides, the “ON × OFF × kcat, Fold vs wt” value in data set [4] is listed as 5.20. Besides, the “ON × OFF, fold vs wt” value in data set [4] was determined as 30.8. For the same molecule, the “ON × OFF (parameters with tembotrione)” value in data set [4] was determined as 0.16.
